In publication PMC5078793:

Target: ADAMTS6 C-terminal region (human) (UniProt Q9UKP5)
Test: SPR; Biacore; ADAMTS protein (full-length or C-terminal region) immobilised by amine coupling on CM5 (~3000 RU); analyte injected at 30 ul/min; 10 mM HEPES pH 7.4, 0.1 M NaCl, 0.5 mM CaCl2, 0.005% P20; 1:1 kinetics or equilibrium analysis

ADAMTS6 C-terminal region (human), sequence (Q9UKP5 558-1117): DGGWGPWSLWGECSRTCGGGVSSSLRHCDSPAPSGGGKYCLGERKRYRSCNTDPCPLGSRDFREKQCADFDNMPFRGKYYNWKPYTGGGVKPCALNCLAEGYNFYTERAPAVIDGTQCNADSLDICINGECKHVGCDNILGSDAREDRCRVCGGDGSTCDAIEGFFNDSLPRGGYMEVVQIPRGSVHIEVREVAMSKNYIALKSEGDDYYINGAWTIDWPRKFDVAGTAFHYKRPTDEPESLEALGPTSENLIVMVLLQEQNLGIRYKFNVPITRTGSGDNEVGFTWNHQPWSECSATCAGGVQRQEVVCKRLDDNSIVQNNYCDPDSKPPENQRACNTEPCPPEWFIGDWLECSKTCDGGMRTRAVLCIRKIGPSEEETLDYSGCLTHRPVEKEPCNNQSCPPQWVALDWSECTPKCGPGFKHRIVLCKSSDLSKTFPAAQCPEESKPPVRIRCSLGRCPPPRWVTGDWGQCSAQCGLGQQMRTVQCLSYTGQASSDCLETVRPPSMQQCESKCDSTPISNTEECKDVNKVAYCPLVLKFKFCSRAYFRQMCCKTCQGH

- Kd: 9.8 nM
Substance: cellular fibronectin (natural protein)
